Substrate in this data set: NC(=O)c1ccc[n+]([C@@H]2O[C@H](COP(=O)([O-])OP(=O)(O)OC[C@H]3O[C@@H](n4cnc5c(N)ncnc54)[C@H](O)[C@@H]3O)[C@@H](O)[C@H]2O)c1
As to the kind of experiment: steady-state deacetylation kinetics (Km). Format: biochemical, Mus musculus.

B1: Sirt1 (Mus musculus) (protein)
chain: ADEVALALQAAGSPSAAAAMEAASQPADEPLRKRPRRDGPGLGRSPGEPSAAVAPAAAGCEAASAAAPAALWREAAGAAASAEREAPATAVAGDGDNGSGLRREPRAADDFDDDEGEEEDEAAAAAAAAAIGYRDNLLLTDGLLTNGFHSCESDDDDRTSHASSSDWTPRPRIGPYTFVQQHLMIGTDPRTILKDLLPETIPPPELDDMTLWQIVINILSEPPKRKKRKDINTIEDAVKLLQECKKIIVLTGAGVSVSCGIPDFRSRDGIYARLAVDFPDLPDPQAMFDIEYFRKDPRPFFKFAKEIYPGQFQPSLCHKFIALSDKEGKLLRNYTQNIDTLEQVAGIQRILQCHGSFATASCLICKYKVDCEAVRGDIFNQVVPRCPRCPADEPLAIMKPEIVFFGENLPEQFHRAMKYDKDEVDLLIVIGSSLKVRPVALIPSSIPHEVPQILINREPLPHLHFDVELLGDCDVIINELCHRLGGEYAKLCCNPVKLSEITEKPPRPQKELVHLSELPPTPLHISEDSSSPERTVPQDSSVIATLVDQATNNNVNDLEVSESSCVEEKPQEVQTSRNVENINVENPDFKAVGSSTADKNERTSVAETVRKCWPNRLAKEQISKRLEGNQYLFVPPNRYIFHGAEVYSDSEDDVLSSSSCGSNSDSGTCQSPSLEEPLEDESEIEEFYNGLEDDTERPECAGGSGFGADGGDQEVVNEAIATRQELTDVNYPSDKS
notes: recombinant WT Sirt1
The Km is the substrate concentration at which the rate is half of its maximum. Turning to B1, the Km was 203.08 ± 13.24 µM.
